From patent US20230054202A1 (ZYDUS LIFESCIENCES, published 2023)
One block for each binder: values may come before it.

Experiments:
[1] = target: T1, recombinant human neonatal Fc receptor (rhFcRn), Sino Biologics (human, UniProt P55899 24-297; P61769 21-119); assay: SPR (ProteOn XPR36), rhFcRn immobilized on GLC chip, antibody injected, PBS pH 6.0, 25 C
T1 construct: Bought protein
Procedure: The kinetic constants for the binding of antibodies to recombinant human neonatal Fc receptor (hFcRn) were determined by Surface plasmon resonance-based measurement using the ProteOn XPR36 (Bio-Rad). Recombinant rhFcRn receptor (Sino Biologics) was immobilized on a GLC chip following manufacturer's instruction. […] Reactions were carried in PBS (pH 6.0, 0.005% Surfactant P20) at 25° C. After each sample run, the chip surface was regenerated using PBS, pH 7.4. The data, in the form of sensograms, was analysed using the data-fitting programs in the ProteOn system.

[2] = target: T2, native human purified properdin (Quidel; Cat No: A412) (human, UniProt P27918 28-469); assay: SPR (ProteOn XPR36), human properdin amine-coupled on GLC chip, mAb injected, 25 C, PBS pH 7.4
T2 construct: mature; Native purified commercial protein; In the haemolysis assays the properdin is the one present in normal human serum; also called human properdin; factor P
Procedure: The kinetic rate constants for the binding of anti properdin candidates to native human purified properdin (Quidel; Cat No: A412) were determined by Surface plasmon resonance-based measurement using the ProteOn XPR36 (Bio-Rad). All binding measurements were performed in PBS (pH 7.4, 0.005% Surfactant P20) at 25° C. To measure the binding rate constants of properdin to the mAbs, human properdin was immobilized onto a GLC sensor chip using amine coupling chemistry. […] The data, in the form of sensograms were analysed using data-fitting programs integrated in the ProteOn system. Binding affinities in terms of KD value are provided for tested antibodies in table 7.

[3] = target: T2, native human purified properdin …; assay: SPR, purified hybridoma antibody on human properdin

T2 sequence (P27918 28-469): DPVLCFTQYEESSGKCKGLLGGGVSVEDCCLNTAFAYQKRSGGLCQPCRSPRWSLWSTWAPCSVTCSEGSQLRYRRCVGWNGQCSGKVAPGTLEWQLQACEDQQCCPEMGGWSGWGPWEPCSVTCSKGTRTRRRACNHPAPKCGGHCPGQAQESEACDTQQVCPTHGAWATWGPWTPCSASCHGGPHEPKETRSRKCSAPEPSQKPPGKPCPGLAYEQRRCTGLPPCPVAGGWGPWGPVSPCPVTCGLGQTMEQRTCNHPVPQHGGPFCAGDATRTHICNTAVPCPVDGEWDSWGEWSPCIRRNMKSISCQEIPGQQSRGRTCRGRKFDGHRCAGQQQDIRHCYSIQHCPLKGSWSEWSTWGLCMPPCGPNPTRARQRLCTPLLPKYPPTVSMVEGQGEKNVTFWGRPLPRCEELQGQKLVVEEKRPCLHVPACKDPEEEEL

- Kd [1]: 66 nM
- koff [1]: 0.0329 s⁻¹
- kon [1]: 502000 M⁻¹ s⁻¹
- Kd [2]: 0.162 nM
- koff [2]: 0.000128 s⁻¹
- kon [2]: 792000 M⁻¹ s⁻¹
B1: P15 (GLS) (humanized version of 103B2 with GLS in constant region) (antibody, human IgG4 S228P)
heavy: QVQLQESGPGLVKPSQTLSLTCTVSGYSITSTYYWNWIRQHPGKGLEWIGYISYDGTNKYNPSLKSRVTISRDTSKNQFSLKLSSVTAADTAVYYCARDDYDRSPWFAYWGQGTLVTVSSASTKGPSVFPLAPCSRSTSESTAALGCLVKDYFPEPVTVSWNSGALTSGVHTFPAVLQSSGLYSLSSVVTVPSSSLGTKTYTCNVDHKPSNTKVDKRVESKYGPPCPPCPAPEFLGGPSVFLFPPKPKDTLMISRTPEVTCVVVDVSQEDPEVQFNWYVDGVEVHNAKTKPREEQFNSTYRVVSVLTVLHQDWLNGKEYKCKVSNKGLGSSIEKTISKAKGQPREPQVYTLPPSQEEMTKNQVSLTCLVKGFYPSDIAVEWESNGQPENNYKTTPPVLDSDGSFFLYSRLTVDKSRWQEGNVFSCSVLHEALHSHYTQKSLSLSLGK
VL: DIQMTQSPSSLSASVGDRVTITCLASQTIGTWLAWYQQKPGKAPKLLIYAATSLADGVPSRFSGSGSGTDFTLTISSLQPEDFATYYCQQLYSTPWTFGGGTKLEIKR
notes: also called pZRCIII Hyg P15LC-P15HC (IgG4 GLS); copies: 2 + 2

- Kd [1]: 554 nM
- koff [1]: 0.125 s⁻¹
- kon [1]: 227000 M⁻¹ s⁻¹
- Kd [2]: 0.154 nM
- koff [2]: 0.000142 s⁻¹
- kon [2]: 925000 M⁻¹ s⁻¹
B2: P15 (humanized version of 103B2) (antibody, human IgG4 S228P)
heavy: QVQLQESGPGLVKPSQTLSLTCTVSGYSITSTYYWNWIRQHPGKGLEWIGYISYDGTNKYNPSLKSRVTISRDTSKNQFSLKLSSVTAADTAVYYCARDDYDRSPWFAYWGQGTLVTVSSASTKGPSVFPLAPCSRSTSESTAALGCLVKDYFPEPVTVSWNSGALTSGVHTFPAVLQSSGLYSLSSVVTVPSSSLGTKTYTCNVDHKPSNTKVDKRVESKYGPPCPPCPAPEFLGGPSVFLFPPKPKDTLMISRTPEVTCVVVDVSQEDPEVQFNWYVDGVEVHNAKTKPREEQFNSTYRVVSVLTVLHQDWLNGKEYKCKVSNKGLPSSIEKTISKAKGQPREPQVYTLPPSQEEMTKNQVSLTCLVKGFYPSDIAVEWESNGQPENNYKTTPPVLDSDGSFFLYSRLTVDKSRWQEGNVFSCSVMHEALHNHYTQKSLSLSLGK
VL: B1 VL
notes: also called pZRCIII Hyg P15LC-P15HC; copies: 2 + 2

- Kd [2]: 2.07 nM
- koff [2]: 0.000867 s⁻¹
- kon [2]: 420000 M⁻¹ s⁻¹
B3: P11 (humanized version of E12) (antibody, IgG4, V domains shown)
VH: QVQLQQSGPELVRPGVSVKISCKGSGYTFTDYALHWVKQSHAESLEWIGVISTYYGDASYNQKFKDKATMTVDISSSTAYLELARLTSEDSAIYYCARDGYLDYWGQGTLVTVSS
VL: QSVLTQPPSVSAAPGQKVTISCSGSSSNIGNNYVSWYVQLPGTAPKLLIYDNNKRFSGVPDRFSGSKSGTSATLGITGLQTGDEADYYCGAWDGSLREAVFGGGTKVTVLR
notes: Full-length humanized IgG4 made in CHO-S; also called pZRCIII Hyg E12LC-E12HC

- Kd [2]: 2.81 nM
- koff [2]: 0.00151 s⁻¹
- kon [2]: 540000 M⁻¹ s⁻¹
B4: P14 (humanized version of 124F9) (antibody, IgG4, V domains shown)
VH: QVQLQESGPGLVKPSQTLSLTCTVSGYSITSGYYWNWIRQHPGKGLEWIGYISYDGGNKYNPSLKSRVTISRDTSKNQFSLKLSSVTAADTAVYYCARDLDGYESMDYWGQGTSVTVSS
VL: DIVMTQSPLSLSVTPGQPASISCKSSQSLLDINGKTYLNWYLQKPGQSPQLLIYLVSKLDSGVPDRFSGSGSGTDFTLKISRVEAEDVGVYYCWQGTHFPYTFGQGTKVEIKR
notes: Full-length humanized IgG4 made in CHO-S; also called pZRCIII Hyg P14LC-P14HC

- Kd [3]: 0.731 nM
- koff [3]: 0.000509 s⁻¹
- kon [3]: 696000 M⁻¹ s⁻¹
B5: 103B2 (antibody, V domains shown)
VH: KPSQSLSLTCSVTGYSITSTYYWNWIRQFPGNKLEWMGYISYDGTNKYNPSLKNRISITRDTSKNRFFLKLNSVTTEDTATYYCAGDDYDRSPWFAYWGQGTLVTVSA
VL: DIVLTQSPASQSASLGESVTITCLASQTIGTWLAWYQQKPGKSPQLLIYAATSLADGVPSRFSGSGSGTKFSFKISSLQAEDFVSYYCQQLYSTPWTFGGGTKLEIKR
notes: Murine hybridoma antibody purified by Protein A; also called murine anti-properdin hybridoma mAb 103B2
